According to patent US20240254222A1 (Bayer, published 2024):

T1: Human Semaphorin3A-Sema Domain, TPP-19068 (human, UniProt Q14563 21-569)
T1 construct: produced inhouse in HEK293-6E; also called human monovalent Sema3A domain
T1 sequence: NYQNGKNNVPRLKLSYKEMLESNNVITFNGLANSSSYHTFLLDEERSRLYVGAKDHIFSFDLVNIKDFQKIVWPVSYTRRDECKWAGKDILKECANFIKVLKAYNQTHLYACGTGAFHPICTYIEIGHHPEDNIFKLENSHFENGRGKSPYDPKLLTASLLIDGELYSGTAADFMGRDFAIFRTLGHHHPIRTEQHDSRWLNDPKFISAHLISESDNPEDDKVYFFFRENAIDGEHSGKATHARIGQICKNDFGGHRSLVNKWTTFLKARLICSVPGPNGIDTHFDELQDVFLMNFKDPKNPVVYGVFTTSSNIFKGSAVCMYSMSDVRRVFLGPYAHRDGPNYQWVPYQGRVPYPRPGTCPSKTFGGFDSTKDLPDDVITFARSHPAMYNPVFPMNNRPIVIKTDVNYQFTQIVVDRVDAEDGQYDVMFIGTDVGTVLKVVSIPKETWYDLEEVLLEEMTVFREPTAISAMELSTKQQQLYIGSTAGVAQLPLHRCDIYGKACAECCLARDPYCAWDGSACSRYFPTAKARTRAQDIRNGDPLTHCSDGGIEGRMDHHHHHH

T2: Mouse Semaphorin3A-Sema Domain, TPP-19069 (mouse, UniProt O08665 21-569)
T2 construct: produced inhouse
T2 sequence: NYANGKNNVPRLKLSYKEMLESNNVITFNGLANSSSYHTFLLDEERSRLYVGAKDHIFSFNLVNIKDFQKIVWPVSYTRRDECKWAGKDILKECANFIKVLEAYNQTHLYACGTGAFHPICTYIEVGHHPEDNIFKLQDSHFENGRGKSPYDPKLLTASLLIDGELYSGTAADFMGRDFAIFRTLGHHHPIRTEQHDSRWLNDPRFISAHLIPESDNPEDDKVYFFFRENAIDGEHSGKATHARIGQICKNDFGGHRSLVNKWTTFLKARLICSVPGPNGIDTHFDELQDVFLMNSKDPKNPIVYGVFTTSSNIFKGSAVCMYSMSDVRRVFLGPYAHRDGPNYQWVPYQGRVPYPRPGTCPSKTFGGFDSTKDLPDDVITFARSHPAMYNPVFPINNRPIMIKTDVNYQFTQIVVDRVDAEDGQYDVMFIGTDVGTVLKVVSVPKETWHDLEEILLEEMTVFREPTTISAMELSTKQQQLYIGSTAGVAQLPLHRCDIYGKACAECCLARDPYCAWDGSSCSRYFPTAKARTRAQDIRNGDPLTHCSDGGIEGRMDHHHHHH

T3: Dog Semaphorin3A-Sema Domain, TPP-19121 (dog, UniProt Q63548 21-569 (rat entry), limits assumed)
T3 construct: produced inhouse
T3 chain: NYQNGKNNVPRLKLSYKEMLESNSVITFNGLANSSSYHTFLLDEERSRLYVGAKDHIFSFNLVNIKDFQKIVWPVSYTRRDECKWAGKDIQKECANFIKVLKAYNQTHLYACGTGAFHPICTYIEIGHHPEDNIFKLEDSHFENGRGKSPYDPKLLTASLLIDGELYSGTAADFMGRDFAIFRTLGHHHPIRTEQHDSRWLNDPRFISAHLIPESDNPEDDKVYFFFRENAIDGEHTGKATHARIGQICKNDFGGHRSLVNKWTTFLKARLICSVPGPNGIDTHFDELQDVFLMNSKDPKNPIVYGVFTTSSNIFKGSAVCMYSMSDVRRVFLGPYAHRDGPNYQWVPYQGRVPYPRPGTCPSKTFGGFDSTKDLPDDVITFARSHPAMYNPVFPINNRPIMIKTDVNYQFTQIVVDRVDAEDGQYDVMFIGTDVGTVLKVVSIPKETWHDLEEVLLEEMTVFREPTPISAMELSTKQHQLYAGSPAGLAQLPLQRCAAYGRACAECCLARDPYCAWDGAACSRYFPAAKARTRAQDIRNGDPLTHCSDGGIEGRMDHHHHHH


How the values were obtained:
[1] = target: T1, Human Semaphorin3A-Sema Domain, …; test: SPR, captured antibody, Sema3A domain analyte
Method: (§1) To assess the binding kinetics and affinity of anti-Sema3A antibodies as well as their species cross-reactivity profile, binding assays were conducted using surface plasmon resonance (SPR). Binding assays were performed on a Biacore T200 instrument or on a Biacore 8K+ instrument (Cytiva) at 25° C. using assay buffer HBS P+, 300 mM NaCl, 0.75 mM CaCl₂, 2.5 mM MgCl₂, 1 mg/ml BSA, 0.05% NaN₃. Antibodies were captured either via anti-human Fc IgGs (“Human antibody capture kit”, Order No. BR100839, Cytiva) or in case of Fc-tagged analytes by anti-human Fab IgGs (“Human Fab capture kit”, Order No. 28958325, Cytiva) covalently amine coupled to a Series S CM5 sensor chip (Cytiva). The amine coupling was carried out according to the manufacturer's instructions using 1-ethyl-3-(3-dimethylaminopropyl) carbodiimide hydrochloride (EDC), N-hydroxysuccinimide (NHS) and ethanolamine HCl, pH 8.5 (“Amine Coupling Kit” BR-1000-50, Cytiva.). For phage display hits Fc-tagged human and mouse Sema3A was used as analytes in a concentration range from 1.56-200 nM. Human, mouse, cynomolgus, rat, dog and pig monovalent Sema3A domain were used as analytes in a concentration series from […] in multi cycle kinetics mode or in 100 nM for binding analysis only. The sensor surface was regenerated with glycine pH 2.0 after each antigen injection. Obtained sensorgrams were double referenced (subtraction of reference flow cell signal and buffer injection) and were fitted to a 1:1 Langmuir binding model to derive kinetic data using the Biacore T200 Evaluation software.

[2] = target: T2, Mouse Semaphorin3A-Sema Domain, …; test: SPR, captured antibody, Sema3A domain analyte
Method: as §1

[3] = target: T3, Dog Semaphorin3A-Sema Domain, TPP-19121; test: SPR, captured antibody, Sema3A domain analyte
Method: as §1

[4] = target: Human Semaphorin3A-Fc (R&D Systems), TPP-13211 (human); test: cell-based or functional assay
[5] = target: T4, Human Semaphorin3A-Fc (R&D Systems), TPP-13211 (human); test: ELISA, coated Sema3A-Fc, antibody 0.00015-10 ug/ml
T4 construct: R&D Systems 1250-S3; also called recombinant human Sema3A-Fc chimera
T4 sequence (chain, as listed by the source limits assumed): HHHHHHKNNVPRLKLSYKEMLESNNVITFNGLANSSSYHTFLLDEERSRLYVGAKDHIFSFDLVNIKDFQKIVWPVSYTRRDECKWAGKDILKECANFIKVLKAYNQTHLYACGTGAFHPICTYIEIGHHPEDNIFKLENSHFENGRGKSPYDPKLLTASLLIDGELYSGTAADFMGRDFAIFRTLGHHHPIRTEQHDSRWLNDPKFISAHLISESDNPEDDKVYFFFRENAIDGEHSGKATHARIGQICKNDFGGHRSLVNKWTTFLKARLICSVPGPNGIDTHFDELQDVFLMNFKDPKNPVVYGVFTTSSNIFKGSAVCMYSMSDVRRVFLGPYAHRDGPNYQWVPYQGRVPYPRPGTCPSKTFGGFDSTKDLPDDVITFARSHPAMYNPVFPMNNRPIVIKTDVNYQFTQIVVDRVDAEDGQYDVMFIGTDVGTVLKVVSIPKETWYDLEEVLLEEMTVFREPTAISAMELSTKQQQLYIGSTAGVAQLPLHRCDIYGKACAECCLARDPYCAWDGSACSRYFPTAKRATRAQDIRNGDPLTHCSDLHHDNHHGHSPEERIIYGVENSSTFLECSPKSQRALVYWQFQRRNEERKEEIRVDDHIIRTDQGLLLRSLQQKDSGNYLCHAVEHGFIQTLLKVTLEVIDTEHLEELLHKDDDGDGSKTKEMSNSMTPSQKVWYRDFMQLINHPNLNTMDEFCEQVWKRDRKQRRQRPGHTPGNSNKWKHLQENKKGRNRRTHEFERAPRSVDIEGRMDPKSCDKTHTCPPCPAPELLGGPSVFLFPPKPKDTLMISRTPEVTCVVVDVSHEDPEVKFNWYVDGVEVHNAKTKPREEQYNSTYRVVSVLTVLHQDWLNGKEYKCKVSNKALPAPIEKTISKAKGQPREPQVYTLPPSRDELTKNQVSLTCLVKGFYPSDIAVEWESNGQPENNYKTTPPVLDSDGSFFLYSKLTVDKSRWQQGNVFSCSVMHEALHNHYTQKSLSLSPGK
Method: For the assessment of binding selectivity to Sema3A vs Sema3G, 1 nM recombinant human Sema3A-Fc chimera (R&D Systems) or recombinant human GST—Sema3G (Abnova) were coated on Maxisorb plates, incubated with antibodies in a dose-response curve from 0.00015-10 μg/ml, and the binding of antibodies quantified using HRP coupled anti-human antiserum and chemiluminescent substrate.

| Kd [1] [nM] | Kd [2] [nM] | Kd [3] [nM] | EC50 [nM], MCM assay [4] [nM] | EC50 [5] [nM] | binding result [1] | binding result [2] | binding result [3] | Binder |
| --- | --- | --- | --- | --- | --- | --- | --- | --- |
| 73 | 160 | 50 |  |  |  |  |  | TPP-11489 (antibody, human IgG1, lambda, human IgG1; also called Chiome; Chiome Prior Art (hIgG1)) heavy: not shown light: SYELTQPPSVSVSPGQTARITCSGGGSYTGSYYYGWYQQKPGQAPVTVIYYNNKRPSDIPERFSGSLSGTTNTLTISGVQAEDEADYYCGSADNSGDAFGTGTKVTVLGQPKAAPSVTLFPPSSEELQANKATLVCLISDFYPGAVTVAWKADSSPVKAGVETTTPSKQSNNKYAASSYLSLTPEQWKSHRSYSCQVTHEGSTVEKTVAPTECS |
| 6.9 | 3.9 | 7.5 | 11.3 |  |  |  |  | TPP-17755 (antibody, human IgG1, lambda, V domains shown, also called Samsung; Samsung Prior Art F11) VH: EVQLLESGGGLVQTGGSLRLSCAASGFTFSDYAMSWVRQAPGKGLEWVSWIYYDSGSKYYADSVKGRFTISRDNSKNTLYLQMNSLRAEDTAVYYCAKLNGDFDYWGQGTLVTVSS VL: QSVLTQPPSASGTPGQRVTISCSGSSSNIGNNDVSWYQQLPGTAPKLLIYADSHRPSGVPDRFSGSKSGTSASLAISGLRSEDEADYYCGAWDSSLSGYVFGGGTKLTVLG |
| 0.022 | 0.042 | 0.11 |  | 0.1 |  |  |  | TPP-30789 (antibody, human IgG1, kappa, V domains shown, prior art, WO 2020/225400; also called BI clone II; Böhringer (BI) Clone II) VH: EVQLVESGGGLVQPGGSLRLSCAASGFPFSSYYMSWVRQAPGKGLEWVSTIIKSGGYAYYPDSVKDRFTISRDNSKNTLYLQMSSLRAEDTAVYYCVRGGQGAMDYWGQGTTVTVSS VL: EIVLTQSPATLSLSPGERATLSCRASQSIGDYLHWYQQKPGQAPRLLIKYASQSISGIPARFSGSGSGTDFTLTITSLEPEDFAVYYCQQGYSFPYTFGGGTKLEIKR |
| 0.012 | 0.028 | 0.078 |  | 0.08 |  |  |  | TPP-30791 (antibody, human IgG1, kappa, V domains shown, prior art, WO 2020/225400; also called BI clone IV; Böhringer (BI) Clone IV) VH: EVQLVESGGGLLQLGGSLRLSCAASGFTFSSYYMSWVRQAPGKGLEWVSTIIKSGGYAYYPDSVKDRFTISRDNSKNTLNLQMNSLRAEDTAVYYCVKGGQGAMDYWGQGTTVTVSS VL: EIVLTQSPATLSLSPGERATLSCRASQSIGDYLHWYQQKPGQAPRLLIKYASQSISGIPARFSGSGSGTDFTLTISSLEPEDFAVYYCQQGYSFPYTFGGGTKLEIKR |
| 0.015 | 0.04 | 0.1 |  | 0.08 |  |  |  | TPP-30790 (antibody, human IgG1, kappa, V domains shown, prior art, WO 2020/225400; also called BI clone III; Böhringer (BI) Clone III) VH: EVQLVESGGGLVQLGGSLRLSCAASGFTFSSYYMSWVRQAPGKGLEWVSTIIKSGGYAYYPDSVKDRFTISRDNSKNTLYLQMNSLRAEDTAVYYCVKGGQGAMDYWGQGTTVTVSS VL: EIVLTQSPATLSLSPGERATLSCRASQSIGDYLHWYQQKPGQAPRLLIYYASQSISGIPARFSGSGSGTDFTLTISSLEPEDFAVYYCQQGYSFPYTFGGGTKLEIKR |
| 0.05 | 0.05 | 0.0045 | 0.33 | 15.5 |  |  |  | TPP-23337 (antibody, human IgG4 S228P, lambda, V domains shown) VH: EVQLLESGGGLVQPGGSLRLSCAASGFTFSSYAMSWVRQAPGKGLEWVSAIGYGGDTYYADSVKGRFTISRDNSKNTLYLQMNSLRAEDTAVYYCARRDDYTSRDAFDYWGQGTLVTVSS VL: not shown |
| 10 | 7.2 | 22 | 4.13 |  |  |  |  | TPP-15370 (antibody, human IgG1, lambda, V domains shown, human IgG1; also called IgG1, hit from panning; parental mAb) VH: EVQLLESGGGLVQPGGSLRLSCAASGFTFSSYGMHWVRQAPGKGLEWVSAIGTGGDTYYADSVMGRFTISRDNSKNTLYLQMNSLRAEDTAVYYCARRDDYTSRDAFDVWGQGTLVTVSS VL: not shown |
| 0.087 | 0.074 | 0.07 | 0.4 | 1.6 |  |  |  | TPP-23298 (antibody, human IgG4 S228P, lambda, V domains shown) VH: EVQLLESGGGLVQPGGSLRLSCAASGFTFYSYAMSWVRQAPGKGLEWVSAIGTGGDTYYADSVKGRFTISRDNSKNTLYLQMNSLRAEDTAVYYCARRDDYTSRDAFDYWGQGTLVTVSS VL: not shown |
| 0.065 | 0.063 | 0.046 | 0.93 |  |  |  |  | TPP-23345 (antibody, human IgG4 S228P, lambda, V domains shown) VH: EVQLLESGGGLVQPGGSLRLSCAASGFTFSSYAMSWVRQAPGKGLEWVSAIGYGGDTYYADSVKGRFTISRDNSKNTLYLQMNSLRAEDTAVYYCARRDDYTSRDAFDYWGQGTLVTVSS VL: not shown |
| 0.072 | 0.064 | 0.061 | 1.27 |  |  |  |  | TPP-23346 (antibody, human IgG4 S228P, lambda, V domains shown) VH: EVQLLESGGGLVQPGGSLRLSCAASGFTFYSYAMLWVRQAPGKGLEWVSAIGTGGDTYYADSVKGRFTISRDNSKNTLYLQMNSLRAEDTAVYYCARRDDYTSRDAFDYWGQGTLVTVSS VL: not shown |
|  |  |  |  |  | no binding | no binding | no binding | TPP-30792 (antibody, human IgG1, lambda, V domains shown, IgG1; prior art, WO 2020/261281; also called 3H4 Univ Ramot; 3H4 (Ramot) Clon I) V domain 1: EVQLLESGGGLVQPGGSLRLSCAASGFTFRSYAVHWVRQAPGKGLEWVSSTEGSGVGTSYTDSVKGRFTISRDNSKNTLYLQMNSLRAEDTAVYYCARMLGGGNPLDYLDYWGQGTLVTVSS V domain 2: QSVLTQPPSASGTPGQRVTISCSGSSSNLGEGYDVHWYQQLPGKAPKLLIYYSDFRPSGVSDRFSGSKSGTSASLAISGLQSEDEADYYCAAWDDSLSSQVFGGGTQVTVLG |
| 15 | 8.3 | 19 | 5.07 |  |  |  |  | TPP-15374 (antibody, human IgG1, lambda, V domains shown, human IgG1; also called IgG1, hit from panning; parental mAb) VH: EVQLLESGGGLVQPGGSLRLSCAASGFTFSSYEMNWVRQAPGKGLEWVSGISWNSGSIGYADSVKGRFTISRDNSKNTLYLQMNSLRAEDTAVYYCARSGYSSSWFDPDFDYWGQGTLVTVSS VL: QSVLTQPPSASGTPGQRVTISCTGSSSNIGAGYDVHWYQQLPGTAPKLLIYGNSNRPSGVPDRFSGSKSGTSASLAISGLRSEDEADYYCSSYAGSNPYVVFGGGTKLTVLG |
